US6586222 (CHIRON, dated 2003)
The star is where a group is joined. P(O)(OPh)2 = diphenyl phosphonate replacing C-terminal COOH, O=P(Oc1ccccc1)(Oc1ccccc1)*; Boc = CC(C)(C)OC(=O)*

T1: purified, activated recombinant human PR-3 (from proPR-3 secreted by Sf9 insect cells, activated with DPPI) (human, UniProt P24158 28-256)
T1 sequence: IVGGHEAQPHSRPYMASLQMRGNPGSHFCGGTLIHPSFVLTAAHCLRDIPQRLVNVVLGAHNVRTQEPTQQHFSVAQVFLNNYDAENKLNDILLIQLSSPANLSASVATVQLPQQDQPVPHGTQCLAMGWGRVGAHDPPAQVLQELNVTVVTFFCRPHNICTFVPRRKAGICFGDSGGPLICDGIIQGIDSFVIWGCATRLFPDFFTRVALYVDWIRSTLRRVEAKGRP


Molecular target: T1, purified, activated recombinant human …
Assay: cell-based or functional assay

| IC50 of residual enzyme activity (Boc-Ala-ONp substrate, 1 hour at 25° C.) [µM] | Binder |
| --- | --- |
| ~10 | Boc-Ala-Pro-Val-{P(O)(OPh)2} [Boc-Ala-Pro-Val-p(OPh)2] |
| ~0.4 | Boc-Val-Pro-Val-{P(O)(OPh)2} [Boc-Val-Pro-Val-p(OPh)2] |
